Reference: patent US20250382363A1 (NUMAB THERAPEUTICS, published 2025)

What was measured:
[1] = biological target: pre-existing anti-drug antibodies (ADA) present in human sera; test: pre-existing ADA ELISA, scFv coated, human sera unspiked vs spiked
[2] = biological target: T1, human a-Mesothelin (Acro Biosystems; MSN_H5223) (human, UniProt Q13421 296-580, limits assumed); test: SPR, mesothelin immobilised, scFv analyte, 1:1 fit
T1 construct: Bought protein immobilised on the SPR chip; Printed as 'a-Mesothelin' but used as the antigen for the anti-MSLN scFvs; also called Human MSLN; MSLN
Procedure: (§1) The mutation variants were then injected at concentrations of 10 nM, 2 nM and 0.4 nM over the ligand-immobilized and reference spots. The wild type variants were used as a control, while an empty spot was used as reference.
(§2) After each cycle with analyte, the surface was regenerated with a 3M MgCl₂ solution, thereby allowing the next analyte cycle to have only free ligand available. Binding affinity KD was globally calculated by the Bruker SPR software based on the binding association (kₒₙ) and dissociation (Koff) rate, by fitting a 1:1 Langmuir model to the curves obtained by the cycles with the three different concentrations of the analyte.

[3] = biological target: T2, human a-PD-L1 Fc (Sino Biological, 10084-H02H, LC11NO2402) (human, UniProt Q9NZQ7 19-239); test: SPR, PD-L1 Fc immobilised, scFv analyte, 1:1 fit
T2 construct: Bought Fc fusion immobilised on the SPR chip; Printed as 'a-PD-L1 Fc' but used as the antigen (ligand) for the anti-PD-L1 scFvs; also called Human PD-L1; not shown: Fc part
Procedure: as §1, §2

T2 sequence (Q9NZQ7 19-239 limits assumed): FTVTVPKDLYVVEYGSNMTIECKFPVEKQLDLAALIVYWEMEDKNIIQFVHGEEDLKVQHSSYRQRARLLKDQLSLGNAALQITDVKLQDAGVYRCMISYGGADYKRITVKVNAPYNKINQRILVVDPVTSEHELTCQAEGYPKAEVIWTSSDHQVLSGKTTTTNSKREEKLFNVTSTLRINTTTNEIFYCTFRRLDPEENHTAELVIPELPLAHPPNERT
T1 sequence (Q13421 other isoform, or with tags, fused parts or gaps limits assumed): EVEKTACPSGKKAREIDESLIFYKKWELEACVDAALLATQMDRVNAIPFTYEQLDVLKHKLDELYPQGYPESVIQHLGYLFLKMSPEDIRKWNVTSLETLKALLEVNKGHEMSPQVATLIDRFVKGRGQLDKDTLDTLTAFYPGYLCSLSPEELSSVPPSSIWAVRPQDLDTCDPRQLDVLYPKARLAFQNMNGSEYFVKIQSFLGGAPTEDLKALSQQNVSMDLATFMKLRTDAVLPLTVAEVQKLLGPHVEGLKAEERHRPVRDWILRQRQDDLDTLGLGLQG

Binder | Mean No of serum samples >30% inhibition (30% CCP) with SCP (serum samples) [1] | No of serum samples >30% inhibition (30% CCP) without SCP (serum samples) [1] | Kd [2] | n-fold to wt [2] | Kd [3] | n-fold to wt [3]
PRO1922 (scFv 54-21-H03-sc01) (scFv, also called PRO1922 wt; a-MSLN wt) scFv: DIQMTQSPSSLSASVGDRVTITCQASESIYSSLAWYQQKPGKAPKLLIYLASTLASGVPSRFSGSGSGTDFTLTISSLQPEDFATYYCQSTDYTTSTHRNSFGTGTKVTVLGGGGGSGGGGSGGGGSGGGGSEVQLVESGGGLVQPGGSLRLSCAASGFSFSTTYYMCWVRQAPGKGLEWIGCTNTASSVRTYYATWAKGRFTISRDNSKNTVYLQMNSLRAEDTAVYYCARDMGFADYALNLWGQGTLVTVSS | 8 | 16 | 1.8 nM | 1 fold | – | –
PRO2918 (scFv 54-21-H03-sc01_(L12R, V103T, L144Q)) (scFv, VH substitutions, AHo numbering; also called PRO1922-L12R-V103T-L144Q) scFv: DIQMTQSPSSLSASVGDRVTITCQASESIYSSLAWYQQKPGKAPKLLIYLASTLASGVPSRFSGSGSGTDFTLTISSLQPEDFATYYCQSTDYTTSTHRNSFGTGTKVTVLGGGGGSGGGGSGGGGSGGGGSEVQLVESGGGRVQPGGSLRLSCAASGFSFSTTYYMCWVRQAPGKGLEWIGCTNTASSVRTYYATWAKGRFTISRDNSKNTVYLQMNSLRAEDTATYYCARDMGFADYALNLWGQGTQVTVSS | 3 | 5 | 2.4 nM | 1.3 fold | – | –
PRO2930 (scFv 54-21-H03-sc01_(L144K, T146E, S148K)) (scFv, PRO1922 variant; VH substitutions, AHo numbering; also called PRO1922 L144K-T146E-S148K) scFv: DIQMTQSPSSLSASVGDRVTITCQASESIYSSLAWYQQKPGKAPKLLIYLASTLASGVPSRFSGSGSGTDFTLTISSLQPEDFATYYCQSTDYTTSTHRNSFGTGTKVTVLGGGGGSGGGGSGGGGSGGGGSEVQLVESGGGLVQPGGSLRLSCAASGFSFSTTYYMCWVRQAPGKGLEWIGCTNTASSVRTYYATWAKGRFTISRDNSKNTVYLQMNSLRAEDTAVYYCARDMGFADYALNLWGQGTKVEVKS | 0 | 0 | 1.3 nM | 0.7 fold | – | –
PRO2931 (scFv 54-21-H03-sc01_(L144K, S148L)) (scFv, PRO1922 variant; VH substitutions, AHo numbering; also called PRO1922 L144K-S148L) scFv: DIQMTQSPSSLSASVGDRVTITCQASESIYSSLAWYQQKPGKAPKLLIYLASTLASGVPSRFSGSGSGTDFTLTISSLQPEDFATYYCQSTDYTTSTHRNSFGTGTKVTVLGGGGGSGGGGSGGGGSGGGGSEVQLVESGGGLVQPGGSLRLSCAASGFSFSTTYYMCWVRQAPGKGLEWIGCTNTASSVRTYYATWAKGRFTISRDNSKNTVYLQMNSLRAEDTAVYYCARDMGFADYALNLWGQGTKVTVLS | 1 | 6 | 1.4 nM | 0.8 fold | – | –
PRO2932 (scFv 54-21-H03-sc01_(L144A, S148N)) (scFv, PRO1922 variant; VH substitutions, AHo numbering; also called PRO1922 L144A-S148N) scFv: DIQMTQSPSSLSASVGDRVTITCQASESIYSSLAWYQQKPGKAPKLLIYLASTLASGVPSRFSGSGSGTDFTLTISSLQPEDFATYYCQSTDYTTSTHRNSFGTGTKVTVLGGGGGSGGGGSGGGGSGGGGSEVQLVESGGGLVQPGGSLRLSCAASGFSFSTTYYMCWVRQAPGKGLEWIGCTNTASSVRTYYATWAKGRFTISRDNSKNTVYLQMNSLRAEDTAVYYCARDMGFADYALNLWGQGTAVTVNS | 1 | 5 | 2.1 nM | 1.2 fold | – | –
PRO3313 (scFv 37-20-B03-sc09.1_(T101S, T146R)) (scFv, PRO2230 variant; VH substitutions, AHo numbering; also called PRO2230 T101S-T146R) scFv: DIQMTQSPASLSASVGDRVTITCQASQSIGTYLAWYQQKPGKPPKLLIYRAFILASGVPSRFSGSGSGTDFTLTISSLQPEDFATYYCQSNFYSDSTTIGPNAFGTGTKVTVLGGGGGSGGGGSGGGGSGGGGSEVQLVESGGGLVQPGGSLRLSCAASGFSFNSDYWIYWVRQAPGKGLEWIASIYGGSSGNTQYASWAQGRFTISRDNSKNTVYLQMNSLRAEDSAVYFCARGYVDYGGATDLWGQGTLVRVSS | 1 | 5 | – | – | 0.014 nM | 0.3 fold
PRO3314 (scFv 37-20-B03-sc09.1_(T101Q, T146Q)) (scFv, PRO2230 variant; VH substitutions, AHo numbering; also called PRO2230 T101Q-T146Q) scFv: DIQMTQSPASLSASVGDRVTITCQASQSIGTYLAWYQQKPGKPPKLLIYRAFILASGVPSRFSGSGSGTDFTLTISSLQPEDFATYYCQSNFYSDSTTIGPNAFGTGTKVTVLGGGGGSGGGGSGGGGSGGGGSEVQLVESGGGLVQPGGSLRLSCAASGFSFNSDYWIYWVRQAPGKGLEWIASIYGGSSGNTQYASWAQGRFTISRDNSKNTVYLQMNSLRAEDQAVYFCARGYVDYGGATDLWGQGTLVQVSS | 1 | 4 | – | – | 0.027 nM | 0.6 fold
PRO3317 (scFv 37-20-B03-sc09.1_(T101Q)) (scFv, PRO2230 variant; VH substitution, AHo numbering; also called PRO2230 T101Q) scFv: DIQMTQSPASLSASVGDRVTITCQASQSIGTYLAWYQQKPGKPPKLLIYRAFILASGVPSRFSGSGSGTDFTLTISSLQPEDFATYYCQSNFYSDSTTIGPNAFGTGTKVTVLGGGGGSGGGGSGGGGSGGGGSEVQLVESGGGLVQPGGSLRLSCAASGFSFNSDYWIYWVRQAPGKGLEWIASIYGGSSGNTQYASWAQGRFTISRDNSKNTVYLQMNSLRAEDQAVYFCARGYVDYGGATDLWGQGTLVTVSS | 1 | 7 | – | – | 0.042 nM | 0.9 fold
PRO3338 (scFv 37-20-B03-sc09.1_(T101K, T146Q)) (scFv, PRO2230 variant; VH substitutions, AHo numbering; also called PRO2230 T101K-T146Q) scFv: DIQMTQSPASLSASVGDRVTITCQASQSIGTYLAWYQQKPGKPPKLLIYRAFILASGVPSRFSGSGSGTDFTLTISSLQPEDFATYYCQSNFYSDSTTIGPNAFGTGTKVTVLGGGGGSGGGGSGGGGSGGGGSEVQLVESGGGLVQPGGSLRLSCAASGFSFNSDYWIYWVRQAPGKGLEWIASIYGGSSGNTQYASWAQGRFTISRDNSKNTVYLQMNSLRAEDKAVYFCARGYVDYGGATDLWGQGTLVQVSS | 0 | 0 | – | – | 0.021 nM | 0.4 fold
PRO3339 (scFv 37-20-B03-sc09.1_(T101N, T146Q)) (scFv, PRO2230 variant; VH substitutions, AHo numbering; also called PRO2230 T101N-T146Q) scFv: DIQMTQSPASLSASVGDRVTITCQASQSIGTYLAWYQQKPGKPPKLLIYRAFILASGVPSRFSGSGSGTDFTLTISSLQPEDFATYYCQSNFYSDSTTIGPNAFGTGTKVTVLGGGGGSGGGGSGGGGSGGGGSEVQLVESGGGLVQPGGSLRLSCAASGFSFNSDYWIYWVRQAPGKGLEWIASIYGGSSGNTQYASWAQGRFTISRDNSKNTVYLQMNSLRAEDNAVYFCARGYVDYGGATDLWGQGTLVQVSS | 0 | 0 | – | – | 0.035 nM | 0.7 fold
PRO3340 (scFv 37-20-B03-sc09.1_(T101S, T146K)) (scFv, PRO2230 variant; VH substitutions, AHo numbering; also called PRO2230 T101S-T146K) scFv: DIQMTQSPASLSASVGDRVTITCQASQSIGTYLAWYQQKPGKPPKLLIYRAFILASGVPSRFSGSGSGTDFTLTISSLQPEDFATYYCQSNFYSDSTTIGPNAFGTGTKVTVLGGGGGSGGGGSGGGGSGGGGSEVQLVESGGGLVQPGGSLRLSCAASGFSFNSDYWIYWVRQAPGKGLEWIASIYGGSSGNTQYASWAQGRFTISRDNSKNTVYLQMNSLRAEDSAVYFCARGYVDYGGATDLWGQGTLVKVSS | 0 | 2 | – | – | 0.056 nM | 1.1 fold
PRO3341 (scFv 37-20-B03-sc09.1_(T101S, T146S)) (scFv, PRO2230 variant; VH substitutions, AHo numbering; also called PRO2230 T101S-T146S) scFv: DIQMTQSPASLSASVGDRVTITCQASQSIGTYLAWYQQKPGKPPKLLIYRAFILASGVPSRFSGSGSGTDFTLTISSLQPEDFATYYCQSNFYSDSTTIGPNAFGTGTKVTVLGGGGGSGGGGSGGGGSGGGGSEVQLVESGGGLVQPGGSLRLSCAASGFSFNSDYWIYWVRQAPGKGLEWIASIYGGSSGNTQYASWAQGRFTISRDNSKNTVYLQMNSLRAEDSAVYFCARGYVDYGGATDLWGQGTLVSVSS | 0 | 4 | – | – | 0.051 nM | 1 fold
PRO3342 (scFv 37-20-B03-sc09.1_(T101K, T146D)) (scFv, PRO2230 variant; VH substitutions, AHo numbering; also called PRO2230 T101K-T146D) scFv: DIQMTQSPASLSASVGDRVTITCQASQSIGTYLAWYQQKPGKPPKLLIYRAFILASGVPSRFSGSGSGTDFTLTISSLQPEDFATYYCQSNFYSDSTTIGPNAFGTGTKVTVLGGGGGSGGGGSGGGGSGGGGSEVQLVESGGGLVQPGGSLRLSCAASGFSFNSDYWIYWVRQAPGKGLEWIASIYGGSSGNTQYASWAQGRFTISRDNSKNTVYLQMNSLRAEDKAVYFCARGYVDYGGATDLWGQGTLVDVSS | 0 | 1 | – | – | 0.038 nM | 0.8 fold
PRO3343 (scFv 37-20-B03-sc09.1_(T101R, T146E)) (scFv, PRO2230 variant; VH substitutions, AHo numbering; also called PRO2230 T101R-T146E) scFv: DIQMTQSPASLSASVGDRVTITCQASQSIGTYLAWYQQKPGKPPKLLIYRAFILASGVPSRFSGSGSGTDFTLTISSLQPEDFATYYCQSNFYSDSTTIGPNAFGTGTKVTVLGGGGGSGGGGSGGGGSGGGGSEVQLVESGGGLVQPGGSLRLSCAASGFSFNSDYWIYWVRQAPGKGLEWIASIYGGSSGNTQYASWAQGRFTISRDNSKNTVYLQMNSLRAEDRAVYFCARGYVDYGGATDLWGQGTLVEVSS | 0 | 0 | – | – | 0.029 nM | 0.6 fold
